Assay results taken from patent US20190225691A1 (SHANGHAI HENLIUS BIOTECH, published 2019).
Numbering of substitutions follows the chain as printed. Names may count otherwise.

B1: PL3#7-19 deglyco1 mtIgG1 (antibody, V domains shown)
VH: QVQLVQSGAEVKKPGSSVKVSCKASGGTFSSYPISWVRQAPGQGLEWMGRIIPILGIANYAQKFQGRVTITADKSTSTAYMELSSLRSEDTAVYYCARSRDGYAFGAFDVWGQGTLVTVSS
VL: QSVVTQPPPVSGAPGQRVTISCTGSSSNIGGGYDVHWYQQLPGTAPKLLIYGNSNRPSGVPDRFSGSKSGTSASLAITGLQAEDEADYYCQTYDSSLSATVVFGGGTKLTVLG
notes: N297A mutant human IgG1; also called PL3#7-19 deglycol
B2: PL3#7-19 mtIgG1 (antibody, V domains shown)
VH: B1 VH
VL: B1 VL with N55T
modifications: Antibody was biotinylated (NHS-PEG4-biotin, sites not specified) for the Octet assay of Table 11.
notes: N297A mutant human IgG1; also called PL3#7-19 parental mtIgG1
B3: PL3#7-43 deglyco2 mtIgG1 (antibody, V domains shown)
VH: B1 VH with D101P, V110I
VL: B1 VL with I29V, G31A, N55Q, P57S, L97G, T100R
notes: N297A mutant human IgG1; also called PL3#7-43 deg1yco2
B4: PL3#7-43 Fab (Fab, V domains shown)
VH: B1 VH with D101P, V110I
VL: QSVVTQPPPVSGAPGQRVTISCTGSSSNVGAGYDVHWYQQLPGTAPKLLIYGNSNRSSGVPDRFSGSKSGTSASLAITGLQAEDEADYYCQTYDSSGSARVVFGGGTKLTVL
B5: PL3#7-54 mtIgG1 (antibody, V domains shown)
VH: B1 VH with N59D, D101P, V110I
VL: B1 VL with G31Q, G52A, T100R
modifications: Antibody was biotinylated (NHS-PEG4-biotin, sites not specified) for the Octet assay of Table 11.
notes: N297A mutant human IgG1
B6: PL3#7-19 deglyco3 mtIgG1 (antibody, V domains shown)
VH: B1 VH
VL: B1 VL with N55Q
notes: N297A mutant human IgG1
B7: PL3#7-19 Fab (Fab, V domains shown)
VH: B1 VH
VL: B4 VL with V29I, A31G, N55T, S57P, G97L, R100T
B8: PL3#7-19 deglyco2 mtIgG1 (antibody, V domains shown)
VH: B1 VH
VL: B1 VL with N53Q, N55T
notes: N297A mutant human IgG1
B9: PL3#7-43 mtIgG1 (antibody, V domains shown)
VH: B1 VH with D101P, V110I
VL: B1 VL with I29V, G31A, P57S, L97G, T100R
modifications: Antibody was biotinylated (NHS-PEG4-biotin, sites not specified) for the Octet assay of Table 11.
notes: N297A mutant human IgG1; also called PL3#7-43 parental mtIgG1
B10: PL3#7-43 deglyco1 mtIgG1 (antibody, V domains shown)
VH: B1 VH with D101P, V110I
VL: B1 VL with I29V, G31A, L97G, T100R
notes: N297A mutant human IgG1; also called PL3#7-43 deglycol
B11: PL2#3 mtIgG1 (N297A) (antibody, V domains shown)
VH: EVQLVQSGGGLVKPGGSLRLSCAASGFTFSSYTMNWVRQAPGKGLEWVSSISSGSDYLYYADSVKGRFTISRDNAKNSLYLQMNSLRAEDTAVYYCARNELRWYPQAGAFDRWGQGTMVTVSS
VL: QSVVTQPPSMSAAPGQRVTISCSGSSSYIESSYVGWYQQLPGTAPRLLIYDDDMRPSGIPDRFSGSKSGTSATLAITGLQTGDEADYYCEIWRSGLGGVFGGGTKLTVLS
notes: N297A mutant of human IgG1 Fc backbone

Tests used:
human PD-L1 ECD-His [1] = target: T1, human PD-L1 ECD-His (human, UniProt Q9NZQ7 19-238); assay: BLI, ratio of KD to parental PL3#7-19
T1 construct: extracellular domain; Analyte in all SPR and BLI runs; also called hPD-L1_ECD-His; hPD-L1 ECD-His; not shown: His tag
T1 sequence (Q9NZQ7 19-238): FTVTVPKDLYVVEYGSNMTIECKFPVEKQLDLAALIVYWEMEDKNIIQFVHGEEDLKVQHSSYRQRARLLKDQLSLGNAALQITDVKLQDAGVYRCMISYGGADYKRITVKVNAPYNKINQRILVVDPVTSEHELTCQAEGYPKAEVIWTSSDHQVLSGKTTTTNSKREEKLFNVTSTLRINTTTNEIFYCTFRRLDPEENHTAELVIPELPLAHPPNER
Description: (§1) Briefly, black 96-well plate was prepared with columns containing 200 μL/well of reagents required for determination of affinity. In general, Octet anti-human-Fc sensors were first placed in wells containing 1×Kinetics Buffer (PBS, 0.1% BSA, 0.02% Tween-20, pH 7.4) for 180 seconds to establish a baseline. Sensors were then transferred to wells containing […] anti-PD-L1 variants for 600 seconds to load the anti-human-Fc tips. Sensors were then placed in fresh 1×Kinetics Buffer for 180 seconds to establish a baseline. Association was then measured by incubating the sensors for 3 minutes in wells containing hPD-L1-His followed by transferring to wells containing 1×Kinetics Buffer for 10 minutes to measure dissociation. Sensors were then regenerated by 3X5 second incubations in Regeneration Buffer (10 mM Glycine, pH 1.5) followed by a 5 second incubation in 1×Kinetics Buffer each time. Regeneration was repeated before measurement of each association/dissociation cycle. […] All data were analyzed with Octet Data Analysis Software v.9.0 and representative of two independent experiments performed in duplicate.
(§2) All the data are representative of two independent experiments performed in duplicate.

human PD-L1 ECD-His [2] = target: T1, human PD-L1 ECD-His; assay: BLI Octet RED96, antibody on AHC anti-human-Fc sensor, hPD-L1-His analyte, 1:1 fit
Description: as §1, §2

[3] = target: T2, human PD-L1 on cells (PHA-activated human T cells); PD-L1-transfected CHO-S cells; A375 melanoma cells; … (human, UniProt Q9NZQ7 19-290); assay: flow cytometry on PD-L1 transfected CHO-S cells, anti-human IgG Fc-FITC, MFI
T2 construct: whole, on cells; also called PD-L1 expressing T cells; PD-L1 expressing CHO-S cells
T2 sequence (Q9NZQ7 19-290): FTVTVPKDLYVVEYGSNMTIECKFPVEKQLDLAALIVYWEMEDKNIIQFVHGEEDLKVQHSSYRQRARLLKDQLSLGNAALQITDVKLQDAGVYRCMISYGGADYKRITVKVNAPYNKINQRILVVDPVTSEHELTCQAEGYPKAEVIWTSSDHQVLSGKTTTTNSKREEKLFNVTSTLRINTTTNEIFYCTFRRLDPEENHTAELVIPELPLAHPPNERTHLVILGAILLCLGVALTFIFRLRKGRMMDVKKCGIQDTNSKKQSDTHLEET
Description: Binding of tested de-glycosylated variants was assessed by incubating the PD-L1 expressing CHO-S cells (2E5 cells/well) with the serial-diluted antibodies in FACS buffer (PBS with 1% FBS) at 4° C. for 30 minutes. These cells were washed with flow buffer and then stained with anti-human IgG Fc-FITC (1:500×) at 4° C. for 30 minutes to detect antibody binding on the cell surface. Flow cytometric analyses were performed using CytoFlex (Beckman Coulter Inc.).

human PD-L1 ECD-His [4] = target: T1, human PD-L1 ECD-His; assay: BLI, ratio of KD to ref-1
Description: (§3) Briefly, black 96-well plate was prepared with columns containing 200 μL/well of reagents required for determination of affinity. In general, Octet SA sensors were first placed in wells containing 1×Kinetics Buffer (PBS, 0.1% BSA, 0.02% Tween-20, pH 7.4) for 180 seconds to establish a baseline. […] Sensors were then regenerated by 3×5 second incubations in Regeneration Buffer (10 mM Glycine, pH 1.5) followed by a 5 second incubation in 1×Kinetics Buffer each time. Regeneration was repeated before measurement of each association/dissociation cycle. Sensors were then placed in fresh 1×Kinetics Buffer for 180 seconds to establish a baseline. Association was then measured by incubating the sensors for 5 minutes in wells containing hPD-L1-His followed by transferring to wells containing 1×Kinetics Buffer for 10 minutes to measure dissociation. Kinetics (ka, kd, and […] were measured by global fitting four association/dissociation cycles of data obtained from 1:3 serial dilutions of hPD-L1-His from 38.28 nM to 1.42 nM (one association/dissociation cycle for one concentration) with a 1:1 Langmuir binding model. All data were analyzed with Octet Data Analysis Software v.9.0 and representative of two independent experiments performed in duplicate.
as §2

[5] = target: T3, recombinant cynomolgus monkey PD-L1_ECD Fc-fusion protein (Sino Biological Inc.) (cynomolgus monkey, UniProt G7PSE7 19-238); assay: ELISA: cynomolgus monkey PD-L1_ECD/Fc coated (9 ng/well), peroxidase-labeled goat anti-human IgG F(ab)'2, TMB, OD450
T3 construct: Bought
T3 sequence (G7PSE7 entry or part of it limits assumed): as the sequence (Q9NZQ7 19-238) above, with A33T, A34S, S62N, R68Q, Q82R, F173L, T185A, T192I, H215L counted along it
Description: The recombinant cynomolgus monkey PD-L1_ECD Fc-fusion proteins were purchased from Sino Biological Inc. PD-L1_ECD/Fc (9 ng per well) were immobilized onto 96-well assay plat by incubating overnight at 4° C. Nonspecific binding sites were blocked using 5% skim milk in PBS for one hour at room temperature. After washing plates three times with PBST, indicated concentrations of anti-PD-L1 antibodies and HLX01 (negative control) were incubated with the immobilized proteins for one hour at room temperature. The plates were washed three times with PBST and then incubated for one hour at room temperature with peroxidase-labeled goat anti-human IgG F(ab)′2 (Jackson ImmunoResearch Laboratories) diluted 1/10,000 in PBS. After washing, plates were developed using TMB (eBioscience). The absorbance was read at the wavelength of 450 nm by Varioskan LUX microplate reader (Thermo Scientific).
HLX01 (anti-CD20 mAb) was used as the negative control.

[6] = target: T4, mouse PD-L1 on B16-F10 melanoma cells (mouse, UniProt Q9EP73 19-290); assay: flow cytometry on mouse PD-L1 expressing B16-F10 melanoma cells, FITC-labeled anti-human IgG Fcγ, MFI
T4 construct: whole, on cells
T4 sequence (Q9EP73 19-290): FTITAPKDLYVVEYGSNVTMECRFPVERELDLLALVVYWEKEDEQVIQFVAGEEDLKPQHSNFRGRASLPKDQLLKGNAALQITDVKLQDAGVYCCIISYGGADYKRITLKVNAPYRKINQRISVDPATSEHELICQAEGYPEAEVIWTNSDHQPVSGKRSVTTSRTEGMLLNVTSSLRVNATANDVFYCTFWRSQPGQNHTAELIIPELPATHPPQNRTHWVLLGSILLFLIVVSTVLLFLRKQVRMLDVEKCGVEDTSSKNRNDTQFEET

human PD-L1 ECD-His [7] = target: T1, human PD-L1 ECD-His; assay: BLI Octet RED96, biotinylated antibody on SA sensor, hPD-L1-His analyte, 1:1 fit
Description: as §3, §2

[8] = target: T2, human PD-L1 on cells (PHA-activated …); assay: flow cytometry on NCI-H292 human NSCLC cells, biotin-labeled anti-human IgG Fcγ and streptavidin-PE, MFI
[9] = target: T2, human PD-L1 on cells (PHA-activated …); assay: flow cytometry on A375 human melanoma cells, biotin-labeled anti-human IgG Fcγ and streptavidin-PE, MFI
human PD-L1 ECD-His [10] = target: T1, human PD-L1 ECD-His; assay: BLI, ratio of KD to parental PL3#7-43
Description: as §1, §2

human PD-L1 ECD-His [11] = target: T1, human PD-L1 ECD-His; assay: Fab ELISA screen after panning on hPD-L1-His; coated antigen not named
[12] = target: T2, human PD-L1 on cells (PHA-activated …); assay: flow cytometry on PHA-activated human T cells, biotin-labeled anti-human IgG Fcγ and streptavidin-PE, MFI
human PD-L1 ECD-His [13] = target: T1, human PD-L1 ECD-His; assay: SPR, ratio of KD to ref-1
human PD-L1 ECD-His [14] = target: T1, human PD-L1 ECD-His; assay: SPR, hPD-L1-His, comparison of IgG isotypes of PL2#3

Row | Binder | Fold Difference (against parental variant) (human PD-L1 ECD-His [1]) | Kd (human PD-L1 ECD-His [2]) | koff (human PD-L1 ECD-His [2]) | kon (human PD-L1 ECD-His [2]) | EC50 (read off the curve) [3] | Improvement over ref-1 (human PD-L1 ECD-His [4]) | EC50 (read off the curve) [5] | Kd (human PD-L1 ECD-His [7]) | koff (human PD-L1 ECD-His [7]) | kon (human PD-L1 ECD-His [7]) | EC50 (read off the curve) [8] | EC50 (read off the curve) [9] | further results
1 | B1 | 1.48 fold | 0.417 nM | 0.000162 s⁻¹ | 384000 M⁻¹ s⁻¹ | ~0.2 µg/mL | – | – | – | – | – | – | – | –
2 | B2 | 1 fold | 0.619 nM | 0.000207 s⁻¹ | 328000 M⁻¹ s⁻¹ | ~0.2 µg/mL | 4.57 fold | ~0.05 µg/mL | 0.538 nM | 0.000201 s⁻¹ | 419000 M⁻¹ s⁻¹ | ~0.02 µg/mL | ~0.01 µg/mL | binding result [6]: no binding (tested: 5 µg/mL)
3 | B3 | – | 0.395 nM | 0.000238 s⁻¹ | 600000 M⁻¹ s⁻¹ | ~0.2 µg/mL | – | – | – | – | – | – | – | Fold Difference (against parental variant) (human PD-L1 ECD-His [10]): 0.87 fold
4 | B4 | – | – | – | – | – | – | – | – | – | – | – | – | binding result (human PD-L1 ECD-His [11]): binds
5 | B5 | – | – | – | – | – | 3.19 fold | ~0.05 µg/mL | 0.772 nM | 0.000228 s⁻¹ | 307000 M⁻¹ s⁻¹ | ~0.008 µg/mL | ~0.001 µg/mL | EC50 (read off the curve) [12]: ~0.004 µg/mL
6 | B6 | 1.74 fold | 0.356 nM | 0.000176 s⁻¹ | 506000 M⁻¹ s⁻¹ | ~0.2 µg/mL | – | – | – | – | – | – | – | –
7 | B7 | – | – | – | – | – | – | – | – | – | – | – | – | binding result (human PD-L1 ECD-His [11]): binds
8 | B8 | 1.68 fold | 0.369 nM | 0.000151 s⁻¹ | 415000 M⁻¹ s⁻¹ | ~0.2 µg/mL | – | – | – | – | – | – | – | –
9 | B9 | – | 0.345 nM | 0.000212 s⁻¹ | 628000 M⁻¹ s⁻¹ | ~0.2 µg/mL | 7.86 fold | ~0.04 µg/mL | 0.313 nM | 0.000103 s⁻¹ | 330000 M⁻¹ s⁻¹ | ~0.01 µg/mL | ~0.002 µg/mL | Fold Difference (against parental variant) (human PD-L1 ECD-His [10]): 1 fold; EC50 (read off the curve) [6]: ~0.005 µg/mL; EC50 (read off the curve) [12]: ~0.008 µg/mL
10 | B10 | – | 0.439 nM | 0.000271 s⁻¹ | 612000 M⁻¹ s⁻¹ | ~0.2 µg/mL | – | – | – | – | – | – | – | Fold Difference (against parental variant) (human PD-L1 ECD-His [10]): 0.79 fold
11 | B11 | – | – | – | – | – | 1 fold | ~0.03 µg/mL | 2.46 nM | 0.000561 s⁻¹ | 221000 M⁻¹ s⁻¹ | ~0.01 µg/mL | ~0.002 µg/mL | Improvement over ref-1 (human PD-L1 ECD-His [13]): 2.86 fold; binding result [6]: no binding (tested: 5 µg/mL); EC50 (read off the curve) [12]: ~0.003 µg/mL; Kd (human PD-L1 ECD-His [14]): 0.221 nM; koff (human PD-L1 ECD-His [14]): 0.000286 s⁻¹; kon (human PD-L1 ECD-His [14]): 1.33e+06 M⁻¹ s⁻¹
